{"source": "patent US20170369523A1", "about": "“TEMPLATE-FIXED BETA-HAIRPIN PEPTIDOMIMETICS THAT ARE LIGANDS FOR G-PROTEIN-COUPLED RECEPTORS (GPCRS) AND ARE MODULATORS OF TRANSCRIPTION FACTORS AND COACTIVATORS” (POLYPHOR AG, priority 2008, published 2017)", "binders": {"B1": {"name": "Ex. 35 (peptide)", "peptide": "cyclo(DCFWKYC[Cha][dP]P)", "modifications": "disulfide 2-7", "SMILES": "NCCCC[C@@H]1NC(=O)[C@H](Cc2c[nH]c3ccccc23)NC(=O)[C@H](Cc2ccccc2)NC(=O)[C@@H]2CSSC[C@H](NC(=O)[C@H](Cc3ccc(O)cc3)NC1=O)C(=O)N[C@@H](CC1CCCCC1)C(=O)N1CCC[C@@H]1C(=O)N1CCC[C@H]1C(=O)N[C@@H](CC(=O)O)C(=O)N2"}}, "biological_target": "T1, human UTR2 receptor (human, UniProt Q9UKP6 1-389)", "T1 sequence (looked up)": "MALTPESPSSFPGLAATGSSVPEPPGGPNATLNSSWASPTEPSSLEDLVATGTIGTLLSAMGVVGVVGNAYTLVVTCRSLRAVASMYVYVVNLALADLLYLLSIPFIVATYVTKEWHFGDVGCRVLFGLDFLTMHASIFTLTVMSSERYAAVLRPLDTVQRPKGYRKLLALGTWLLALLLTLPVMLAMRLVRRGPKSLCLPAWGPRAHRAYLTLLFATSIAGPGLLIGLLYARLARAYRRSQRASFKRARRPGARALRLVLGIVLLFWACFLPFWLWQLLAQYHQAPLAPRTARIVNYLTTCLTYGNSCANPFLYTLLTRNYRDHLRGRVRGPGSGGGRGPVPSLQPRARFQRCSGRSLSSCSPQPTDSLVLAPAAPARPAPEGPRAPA", "assay": "cell-based or functional assay", "note": "Bridge positions count the residues as written; N and C are the ends. Square brackets hold non-standard residues; d marks the D form. Cha = N[C@@H](CC1CCCCC1)C(=O)O"}
{"binder": "B1", "values": [{"measurement": "IC50% (Ca2+ assay, antagonist activity; compound added prior to urotensin)", "result": 0.2, "unit": "nM"}]}
